Measurements from publication PMC4843017, “Molecular requirements for the inter-subunit interaction and kinetochore recruitment of SKAP and Astrin” (Nature Communications, 2016).

How the values were obtained:
[1] = biological target: T1, taxol-stabilized microtubules (α-/β-tubulin) (bovine, UniProt P81947 1-451; Q6B856 1-445); assay: co-sedimentation; Kd determination: 0-10 μM taxol-stabilized microtubules (tubulin dimer), 1 μM BSA, 1 μM protein of interest; 25 mM Hepes pH 7.5, 150 mM NaCl, 1 mM MgCl2, 1 mM EGTA, 2 mM DTE; 10 min room temperature; 350,000 g, 25 °C; gel densitometry, quadratic fit; apparent Kd; settings: both partners purified
T1 construct: α-tubulin, named α-1B tubulin in the cross-linking analysis; β-tubulin, named β-2B tubulin in the cross-linking analysis; Polymer of α/β-tubulin dimers; Bought tubulin is likely a mixture of isotypes; In the polymerization assay (functional rows) the same tubulin was used unpolymerized; also called MTs; α-1B and β-2B tubulin; source: bought: Cytoskeleton, Inc; polymerized according to …

[2] = biological target: the molecule itself; assay: AUC + cross-linking; sedimentation velocity, 42,000 r.p.m., 20 °C, 20 mM Hepes pH 7.5, 300 mM NaCl, 10% glycerol, 2 mM DTE; cross-linking conditions not told (Supplementary Fig. 3)

T1 sequence (P81947 whole entry, chain 1 of 2): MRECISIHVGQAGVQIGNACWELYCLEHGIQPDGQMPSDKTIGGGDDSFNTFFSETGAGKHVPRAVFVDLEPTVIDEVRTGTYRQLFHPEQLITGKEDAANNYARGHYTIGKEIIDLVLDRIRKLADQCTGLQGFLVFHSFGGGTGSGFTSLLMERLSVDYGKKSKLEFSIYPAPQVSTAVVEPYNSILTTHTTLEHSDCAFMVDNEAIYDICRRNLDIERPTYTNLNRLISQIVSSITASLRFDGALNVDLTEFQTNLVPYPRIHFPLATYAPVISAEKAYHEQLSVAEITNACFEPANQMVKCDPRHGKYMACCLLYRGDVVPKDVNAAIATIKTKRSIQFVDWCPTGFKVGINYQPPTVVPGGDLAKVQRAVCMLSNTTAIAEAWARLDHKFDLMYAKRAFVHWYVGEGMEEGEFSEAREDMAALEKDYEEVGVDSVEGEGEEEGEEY
T1 sequence (Q6B856 whole entry, chain 2 of 2): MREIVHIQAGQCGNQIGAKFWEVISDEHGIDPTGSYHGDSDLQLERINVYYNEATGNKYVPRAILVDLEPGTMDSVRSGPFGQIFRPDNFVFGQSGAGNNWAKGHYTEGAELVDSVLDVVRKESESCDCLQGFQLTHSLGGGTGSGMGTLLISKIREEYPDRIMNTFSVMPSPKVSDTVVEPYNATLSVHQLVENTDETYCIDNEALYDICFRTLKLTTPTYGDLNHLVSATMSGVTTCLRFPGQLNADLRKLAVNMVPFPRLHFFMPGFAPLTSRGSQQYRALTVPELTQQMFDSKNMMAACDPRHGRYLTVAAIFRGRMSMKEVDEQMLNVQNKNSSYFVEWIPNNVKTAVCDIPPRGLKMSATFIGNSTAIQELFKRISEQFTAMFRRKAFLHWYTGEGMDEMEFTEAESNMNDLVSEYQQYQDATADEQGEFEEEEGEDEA

B1: SKAP^159–225 (domain or fragment, human, UniProt Q9Y448 159-225, looked up)
chain: VRKGYKPLSKQKSEEELKDKNQLLEAVNKQLHQKLTETQGELKDLTQKVELLEKFRDNCLAILESKG
notes: Small kinetochore-associated protein (SKAP); source: E. coli OverExpress C41 (DE3), purified (GSTrap FF, HiTrap Q FF, Superdex 200); not shown: GST, N-terminal, cleaved
Kd [1]: ~2500 nM

B2: SKAP^135–225 2A mutant (K161A, K164A) (domain or fragment, human, UniProt Q9Y448 135-225, looked up)
chain: VTKITKLRRENGQMKATDTATRRNVRAGYAPLSKQKSEEELKDKNQLLEAVNKQLHQKLTETQGELKDLTQKVELLEKFRDNCLAILESKG
notes: Small kinetochore-associated protein (SKAP); source: E. coli OverExpress C41 (DE3), purified (GSTrap FF, HiTrap Q FF, Superdex 200)
fold reduction of microtubule-binding affinity against wild type [1]: ~4 fold

B3: SKAP^135–225 4A mutant (K140A, K149A, K161A, K164A) (domain or fragment, human, UniProt Q9Y448 135-225, looked up)
chain: VTKITALRRENGQMAATDTATRRNVRAGYAPLSKQKSEEELKDKNQLLEAVNKQLHQKLTETQGELKDLTQKVELLEKFRDNCLAILESKG
notes: as for B2
fold reduction of microtubule-binding affinity against wild type [1]: ~31 fold

B4: SKAP^135–225 (domain or fragment, human, UniProt Q9Y448 135-225, looked up)
chain: VTKITKLRRENGQMKATDTATRRNVRKGYKPLSKQKSEEELKDKNQLLEAVNKQLHQKLTETQGELKDLTQKVELLEKFRDNCLAILESKG
notes: Small kinetochore-associated protein (SKAP); Behaved as a trimer in AUC and cross-linking; also called WT; source: E. coli OverExpress C41 (DE3), purified (GSTrap FF, HiTrap Q FF, Superdex 200)
Kd [1]: ~580 nM | stoichiometry N [2]: 3

B5: SKAP^103–225 (domain or fragment, human, UniProt Q9Y448 103-225, looked up)
chain: TQTRATSKSLLPVRSKEVDVSKQLHSGGPENDVTKITKLRRENGQMKATDTATRRNVRKGYKPLSKQKSEEELKDKNQLLEAVNKQLHQKLTETQGELKDLTQKVELLEKFRDNCLAILESKG
notes: Small kinetochore-associated protein (SKAP)
binding result [1]: binds

B6: SKAP^159–316:Astrin^482–850 complex (complex, human)
chain 1: VRKGYKPLSKQKSEEELKDKNQLLEAVNKQLHQKLTETQGELKDLTQKVELLEKFRDNCLAILESKGLDPALGSETLASRQESTTDHMDSMLLLETLQEELKLFNETAKKQMEELQALKVKLEMKEERVRFLEQQTLCNNQVNDLTTALKEMEQLLEM
chain 2: NKLQHLKESHEMGQALQQARNVMQSWVLISKELISLLHLSLLHLEEDKTTVSQESRRAETLVCCCFDLLKKLRAKLQSLKAEREEARHREEMALRGKDAAEIVLEAFCAHASQRISQLEQDLASMREFRGLLKDAQTQLVGLHAKQEELVQQTVSLTSTLQQDWRSMQLDYTTWTALLSRSRQLTEKLTVKSQQALQERDVAIEEKQEVSRVLEQVSAQLEECKGQTEQLELENSRLATDLRAQLQILANMDSQLKELQSQHTHCAQDLAMKDELLCQLTQSNEEQAAQWQKEEMALKHMQAELQQQQAVLAKEVRDLKETLEFADQENQVAHLELGQVECQLKTTLEVLRERSLQCENLKDTVENLTA
notes: Small kinetochore-associated protein (SKAP); Stoichiometry of the complex was not determined (AUC thwarted by limited solubility); also called SKAP:Astrin complex; source: Tnao38 insect cells (baculovirus), co-expressed, purified (HisTrap FF, Superose 6)
Kd [1]: ~1600 nM

B7: SKAP^159–316 (expressed alone in E. coli) (domain or fragment, human, UniProt Q9Y448 159-316, looked up)
chain: VRKGYKPLSKQKSEEELKDKNQLLEAVNKQLHQKLTETQGELKDLTQKVELLEKFRDNCLAILESKGLDPALGSETLASRQESTTDHMDSMLLLETLQEELKLFNETAKKQMEELQALKVKLEMKEERVRFLEQQTLCNNQVNDLTTALKEMEQLLEM
notes: as for B1
binding result [1]: binds
